{
  "source": "paper PMC6601550",
  "key": {"[1]": {"target": "human neonatal Fc receptor (FcRn heavy chain FCGRT with B2M) on MDCK-hFcRn cells (human) (UniProt P55899)", "experiment": "flow cytometry on cells"}, "[2]": {"target": "FcRn (neonatal Fc receptor) immobilised in the FcRn binding affinity measurement (UniProt P55899)", "experiment": "BLI"}},
  "data": [
    {"substance": "Ocrelizumab (antibody)", "values": [
      {"measurement": "MFI (binding to MDCK-hFcRn cells)", "setting": "[1]", "result": 101, "unit": "MFI"}
    ]},
    {"substance": "Emicizumab (bispecific antibody)", "values": [
      {"measurement": "Kd", "setting": "[2]", "result": 1.23, "unit": "µM"}
    ]},
    {"substance": "Adalimumab (antibody)", "values": [
      {"measurement": "Kd", "setting": "[2]", "result": 1.18, "unit": "µM"},
      {"measurement": "MFI (binding to MDCK-hFcRn cells)", "setting": "[1]", "result": 183, "unit": "MFI"}
    ]},
    {"substance": "Infliximab (antibody)", "values": [
      {"measurement": "MFI (binding to MDCK-hFcRn cells)", "setting": "[1]", "result": 128, "unit": "MFI"}
    ]},
    {"substance": "Basiliximab (antibody)", "values": [
      {"measurement": "MFI (binding to MDCK-hFcRn cells)", "setting": "[1]", "result": 203, "unit": "MFI"}
    ]},
    {"substance": "anti-herpes simplex virus glycoprotein D (gD)-YTE antibody", "values": [
      {"measurement": "MFI (cell binding to MDCK-hFcRn cells)", "setting": "[1]", "result": 1150, "unit": "MFI"}
    ]},
    {"substance": "Rituximab (antibody)", "values": [
      {"measurement": "Kd", "setting": "[2]", "result": 0.46, "unit": "µM"}
    ]}
  ]
}
